Details of data set [1]: species or system C57BL6 mice. The conditions noted are these: mouse, in vivo. On the procedure: The following peptides were synthesized for oral administration: […](FAM) (SEQ ID NO: 14), […](FAM)DK(Palmitoleic acid) (SEQ ID NO: 15), and […](FAM) (SEQ ID NO: 16), wherein FAM is a lysine derivative containing fluorescein. All peptides were cyclized from the side chain to lysine to the N-terminus as previously described. Anesthetized C57BL6 mice had peptide administered at a dose of 10 mg/kg by oral gavage. After administration, mice were removed from isoflurane. At various time points, blood samples were taken by orbital bleeding as previously described. Peaks were normalized to a 15 minute time point from mice that had peptide administered by IV injection.
The following peptides were synthesized for oral administration: […](FAM) (SEQ ID NO: 14), […](FAM) (SEQ ID NO: 16), […](FAM)DK(biotin) (SEQ ID NO: 38), and […](FAM)DK(Palmitoleic acid) (SEQ ID NO: 15). All peptides were cyclized from the side chain to lysine to the N-terminus as previously described in Millward, S. W. et al. (2007) ACS Chem. Biol. 2:625. Anesthetized C57BL6 mice had peptide administered at a dose of 10 mgs/Kg by oral gavage. After administration, mice were removed from isoflurane. At various time points, blood samples were taken by orbital bleeding as previously described. Peaks were normalized to a 20 minute time point from mice that had peptide administered by IV injection. Area under the curve was analyzed by Graphpad 5.0.
In addition to accessing intracellular targets in cell culture, deriving a simple modification that would facilitate oral bioavailability of peptidic ligands would be greatly beneficial for therapeutic development. Intestinal absorption of both fatty acids and biotin is nearly 100% efficient. Zempleni, J. and Mock, D. M. (1999) The American Journal of Clinical Nutrition 69:504. […] Applicants synthesized a protease resistant peptide with the sequence […]-mod (designated SUPR peptide) (SEQ ID NO: 50), where A is N-methyl alanine, the peptide is cyclized from lysine to the N-terminus, and K(mod) is lysine with a modified sidechain including either biotin or palmitoleic acid. Palmitoleic acid is a monounsaturated fatty acid chosen for its ability to bind human serum albumin, and its low melting point allowing for more favorable solubility of conjugated peptides as compared to […] fatty acid conjugates. This peptide was administered to mice at a dose of 10 mg/kg by oral gavage. At various time points, blood was taken from the mice by orbital bleeding. After processing, fluorescence was quantified and compared to the maximum signal obtained by IV injection of peptide at the same dose.

The nature of the next data set: Human serum digests. In kind it is in vitro ADME. The conditions noted are these: reconstituted human serum, 37° C. On the procedure:
Delipidated/lyophilized human serum was purchased from Thermo Scientific and reconstituted as per manufacturer's instructions. 250 nmoles of peptide in 50 μLs of sodium phosphate buffer (pH=8.0) with 10% DMSO was added to 1 mL of reconstituted serum and incubated at 37° C. 100 μL aliquots were taken at various time points and quenched in 300 μLs of acetonitrile. Samples were spun down and decanted to remove precipitate followed by dilution in water to 1.5 mLs. Samples were then analyzed by HPLC as described in the protease resistance experiment.
Delipidated/lyophilized human serum was purchased from Thermo Scientific and reconstituted as per manufacturer's instructions. 250 nmoles of peptide in 50 μL of sodium phosphate buffer (pH=8.0) with 10% DMSO was added to 1 mL of reconstituted serum and incubated at 37° C. 100 μL aliquots were taken at various time points and quenched in 300 μL of acetonitrile. Samples were spun down and decanted to remove precipitate followed by dilution in water to 1.5 mLs.
The human serum and human microsome stability of the Gαi1 binding SUPR peptide ([…] (SEQ ID NO: 7)) were compared to the peptides ability to bind to Her-2. Beginning with the human serum analysis, peptides were digested with 95% human serum at 37° C. Analysis was performed by HPLC. […] Therefore, intact peptide is only completely unmodified peptide. Digestions of SUPR, HMP, and PMP are show have lives very similar to SUPR. Digestion of PMP2 is in progress. Without being bound by theory, Applicants theorize that the fitting for HMP may have produced an artificially low half-life.

Data set [2] in a line: PAMPA (parallel artificial membrane permeability assay). The conditions noted are these: for Log Pe of peptide (biotinylated): biotin-labeled peptide (number + B), non-reducible biotin; for Log Pe of peptide (biotinylated) / Log Pe of peptide: PBS pH 7.4, 24 hrs; for Log Pe of peptide: unmodified peptide, room temperature; for Log Pe: peptide conjugated to biotin containing a reducible disulfide (RB), acceptor well reducing (10 mM DTT). It is filed as in vitro ADME. How it is done: PAMPA assays were set up following manufacturer's instructions. Briefly, 1% phosphatidyl choline (Sigma) was dissolved in dodecane (Sigma) at 65° C. for 3 min. The membrane was applied to each well as per manufacturer's instructions. […] 100 μL of sample was put into each donor well. The acceptor wells contained 300 μL of a 5% DMSO in PBS solution. Passive diffusion was allowed to occur at room temperature for 24 hrs. […] Absorbance at 215 nm was monitored. The area under the peptide peak was integrated.
The acceptor well contained 10 mM DTT as a reducing agent. Data was collected after 6, 12 and 24 hrs. Absorbance at 280 nm was analyzed. The following formula was used to calculate Log Pe: […]
Applicants employed a parallel artificial membrane permeability assay (PAMPA) that will allow for the rapid screening of peptide passive diffusion across a phospholipid bilayer. (Schmidt, et al. (2003) J. Millipore Corporation Application Note AN1729EN00.). In this assay, two chambers are separated by a phospholipid bilayer supported on an inert membrane. Applicants chose to initially focus Applicants examination on peptide ligands developed to bind with high affinity to the heterotrimeric G-proteins Gαi1*GDP and Gα12*GDP. Ja, W. W., et al. (2004) Biochemistry 43:9265; Millward, S. W., et al. (2007) ACS Chem. Biol. 2:625; Fiacco, S. et al. (2008) ChemBioChem 9:2200. These ligands included variations in sequence, size, overall charge, and polarity as well as comparing linear and cyclic peptides, end and biotinylation. […] According to classical methods of increasing permeability. Pinski, C. A., et al. (2001) Advanced Drug Delivery Reviews 46:3. Applicants postulated that the removal of hydrogen bond donors by N-methylation should further increase the permeability of this peptide.

A further data set deals with proteinase K (Parengyodontium album, UniProt P06873). The conditions noted are these: immobilized proteinase K, 4° C; for Cyc t1/2: cyclic peptide; for Lin t1/2: linear peptide. On the procedure: Immobilized chymotrypsin and proteinase K purchased from Sigma. 250 nmoles of peptide in DMSO were added to 50 mM sodium phosphate buffer (pH=8.0) with a final DMSO concentration of 2%. […] The graph was generated by fitting the data to a one phase exponential decay equation (GraphPad Prism 5.0).
Protease resistance enhancement was then tested. The simplest solution for enhancing protease resistance would be the removal of amino acids recognized by protease K and chymotrypsin.
Next the role of each of the N-methyl alanines was analyzed independently. […] For example sequence modifications, including N-methylation would be accomplished one amino acid at a time, walking the peptide from low protease stability to high stability. Whether this is a viable approach for making a peptide like SUPR was investigated. Towards that end, Applicants walked back from SUPR peptide to something closer to cycGIBP, and to determine if there was a gradual decrease in protease resistance. Towards that end, three peptides were synthesized. Two of them contained only one NMA (alanine was substituted for NMA), and the other had no NMA. It was hypothesized that if one could walk back to cycGIBP, then one would expect the loss of a single N-methyl to have some effect on reducing protease resistance, but to still be better than cycGIBP.

A further data set addresses T1, chymotrypsin (Bos taurus, UniProt P00766).
T1 construct: purchased Sigma
Kind of data set: Protease resistance experiment, chymotrypsin digest. It is filed as in vitro ADME. How it is done: Immobilized chymotrypsin and proteinase K purchased from Sigma.
Protease resistance enhancement was then tested.
Towards that end, three peptides were synthesized. […] The effects were dramatic and surprising.

Several values for one entry are separate records, joined by “and”; a condition that tells them apart may be missing. Identical values can stand only once. *1 amine or outer side, *2 acyl side, *3 side chain or, on linkers, in order; H or OH if unused. Where a SMILES comes first, the peptide text is derived from it. Bridges are numbered along the chain shown (N, C = ends). Where no end group is shown, it is not given here. [ ]: non-standard residue; d: D form. The star is where a group is joined. 5FAM = O=C1OC2(c3ccc(O)cc3Oc3cc(O)ccc32)c2ccc(C(=O)*)cc21; Biotin = O=C1N[C@H]2[C@H](CS[C@H]2CCCCC(=O)*)N1; NMeW = CN[C@@H](Cc1c[nH]c2ccccc12)C(=O)O; Glutaryl = O=C(CCCC(=O)[*:2])[*:1]; NMeNva = CCC[C@H](NC)C(=O)O; NMeA = CN[C@@H](C)C(=O)O

Sequence of proteinase K (P06873 106-384): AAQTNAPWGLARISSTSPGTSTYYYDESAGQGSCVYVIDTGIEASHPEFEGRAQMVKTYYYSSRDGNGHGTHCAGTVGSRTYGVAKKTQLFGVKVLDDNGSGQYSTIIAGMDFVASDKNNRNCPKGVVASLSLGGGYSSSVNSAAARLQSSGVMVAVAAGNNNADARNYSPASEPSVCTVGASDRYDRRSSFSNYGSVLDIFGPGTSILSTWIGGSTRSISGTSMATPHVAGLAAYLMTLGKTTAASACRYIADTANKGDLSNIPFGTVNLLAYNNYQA

For the compound `CSCC[C@@H]1NC(=O)CCCC(=O)NCCCC[C@@H](C(=O)N[C@@H](CCCCNC(=O)c2ccc3c(c2)C(=O)OC32c3ccc(O)cc3Oc3cc(O)ccc32)C(=O)N[C@H](CCCCNC(=O)CCCC[C@@H]2SC[C@@H]3NC(=O)N[C@@H]32)C(=O)O)NC(=O)[C@H](CO)NC(=O)[C@H](Cc2c[nH]c3ccccc23)NC(=O)[C@H](CCC(N)=O)NC(=O)[C@H](C)N(C)C(=O)[C@H](Cc2ccc(O)cc2)NC(=O)[C@H](CCC(=O)O)NC(=O)[C@H](Cc2ccc(O)cc2)NC(=O)[C@H](C)N(C)C(=O)[C@H](Cc2ccc(O)cc2)NC(=O)[C@H](Cc2ccccc2)NC1=O` [biotinylated peptide] (MFY[NMeA]YEY[NMeA]QWSKK(5FAM)[dK](Biotin)-OH; linker N-12 via Glutaryl; C-terminus assumed), the bioavailability (as a rule, dose-corrected exposure relative to a reference, in per cent) in data set [1] (10 mg/kg) was determined as 9.4%. In addition, the “time of maximal uptake” value in data set [1] (po) was determined as 3 h. The oral uptake efficiency in data set [1] (po, 10 mg/kg) worked out at 6.4%.

Regarding `CC[C@H](C)[C@H](NC(=O)[C@@H](N)CCSC)C(=O)N[C@H](C(=O)N[C@@H](Cc1c[nH]c2ccccc12)C(=O)N[C@@H](Cc1ccc(O)cc1)C(=O)N[C@@H](CCC(=O)O)C(=O)N[C@@H](Cc1ccccc1)C(=O)N[C@H](C(=O)N[C@@H](C)C(=O)NCC(=O)N[C@H](C(=O)N[C@@H](CCCCN)C(N)=O)[C@@H](C)O)C(C)C)[C@@H](C)O` [linGIBP, reference compound] (H-MITWYEFVAGTK-NH2), the half-life (in general, how long it takes for the measured level to halve) in “Human serum digests” was roughly 504 s.

As for “(N-MeNva)ITWYEFVAGTK ([NMeNva]ITWYEFVAGTK(Biotin)-NH2; N-terminus assumed; SMILES CCC[C@H](NC)C(=O)N[C@H](C(=O)N[C@H](C(=O)N[C@@H](Cc1c[nH]c2ccccc12)C(=O)N[C@@H](Cc1ccc(O)cc1)C(=O)N[C@@H](CCC(=O)O)C(=O)N[C@@H](Cc1ccccc1)C(=O)N[C@H](C(=O)N[C@@H](C)C(=O)NCC(=O)N[C@H](C(=O)N[C@@H](CCCCNC(=O)CCCC[C@@H]1SC[C@@H]2NC(=O)N[C@@H]21)C(N)=O)[C@@H](C)O)C(C)C)[C@@H](C)O)[C@@H](C)CC) [Peptide 9]”, in data set [2], the “Log Pe of peptide (biotinylated)” value was −7.4 ± −0.1 and the “Log Pe of peptide” value is −7.0 ± −0.1.

With “Cyclo-MITWYEFVAGTK (not fully specified (C-terminus, bridges); printed as Cyclo-MITWYEFVAGTK; also: cyclized, ring closure not given here) [Peptide 8]”, in data set [2], the “Log Pe of peptide (biotinylated)” value is −6.5 and −6.5 ± −0.0; the “Log Pe” value is recorded as −5.9; the “Log Pe of peptide” value is given as −8.2 ± −0.2.

With MFYAYEYAQWSK, in the data set with proteinase K, the “Cyc t1/2” value is less than 12 s and the “Lin t1/2” value was less than 12 s. In the data set with chymotrypsin, the “Cyc t1/2” value is less than 12 s and the “Lin t1/2” value was less than 12 s.

With MITWYEFVAGTK [Peptide 7], in data set [2], the “Log Pe of peptide (biotinylated)” value was −6.6 ± −0.1 and the “Log Pe of peptide” value is −7.8 ± −0.1.

As to “MITWYEFVAGTK [Lin column linGIBP, Cyc column cycGIBP, reference compound]”, the “Cyc t1/2” value amounted to 60 s with proteinase K and 126 s in the data set with chymotrypsin. The “Lin t1/2” value with proteinase K is less than 12 s; with chymotrypsin it was 19.8 s.

Regarding “MRLVWIVRSRHFGPRLRMAK (MRLVWIVRSRHFGPRLRMAK(Biotin)-NH2; N-terminus assumed; SMILES CC[C@H](C)[C@H](NC(=O)[C@H](Cc1c[nH]c2ccccc12)NC(=O)[C@@H](NC(=O)[C@H](CC(C)C)NC(=O)[C@H](CCCNC(=N)N)NC(=O)[C@@H](N)CCSC)C(C)C)C(=O)N[C@H](C(=O)N[C@@H](CCCNC(=N)N)C(=O)N[C@@H](CO)C(=O)N[C@@H](CCCNC(=N)N)C(=O)N[C@@H](Cc1c[nH]cn1)C(=O)N[C@@H](Cc1ccccc1)C(=O)NCC(=O)N1CCC[C@H]1C(=O)N[C@@H](CCCNC(=N)N)C(=O)N[C@@H](CC(C)C)C(=O)N[C@@H](CCCNC(=N)N)C(=O)N[C@@H](CCSC)C(=O)N[C@@H](C)C(=O)N[C@@H](CCCCNC(=O)CCCC[C@@H]1SC[C@@H]2NC(=O)N[C@@H]21)C(N)=O)C(C)C) [Peptide 11]”, the “Log Pe of peptide (biotinylated)” value in data set [2] is −6.0 ± −0.1.

Consider “MSQTKRLDDQLYWWEYL (Biotin-MSQTKRLDDQLYWWEYL) [Peptide 10]”, for which, in data set [2], the “Log Pe of peptide (biotinylated)” value is −6.2 and −6.2 ± −0.0; the “Log Pe” value is −4.8; the “Log Pe of peptide” value was −8.4 ± −0.1. Further, in data set [2] (reducible vs nonlabile biotin conjugate), the “fold increase in peptide delivery” value was 16 fold.

Take “NNNNNDKLY(N-MeW)WEFL (Biotin-NNNNNDKLY[NMeW]WEFL) [Peptide 6]”: in data set [2], the “Log Pe of peptide (biotinylated)” value is on record as −6.6 ± −0.1 and the “Log Pe of peptide” value is given as greater than −9.0.

(Values after patent US20180312539A1, “METHODS FOR PREPARING HIGH THROUGHPUT PEPTIDOMIMETICS, ORALLY BIOAVAILABLE DRUGS AND COMPOSITIONS CONTAINING SAME” (University of Southern California, priority 2011, published 2018).)
